Measured values: US20090203530A1, “Polymer evolution via templated synthesis” (priority 2005, published 2009)

Tests used:
papain [1] = target: T1, papain (Carica papaya, UniProt P00784); assay: Fluorescence polarization-based papain binding assay; details: BFL-labelled controls; varying concentrations of papain
T1 construct: purchased Sigma-Aldrich
T1 sequence (P00784 134-345): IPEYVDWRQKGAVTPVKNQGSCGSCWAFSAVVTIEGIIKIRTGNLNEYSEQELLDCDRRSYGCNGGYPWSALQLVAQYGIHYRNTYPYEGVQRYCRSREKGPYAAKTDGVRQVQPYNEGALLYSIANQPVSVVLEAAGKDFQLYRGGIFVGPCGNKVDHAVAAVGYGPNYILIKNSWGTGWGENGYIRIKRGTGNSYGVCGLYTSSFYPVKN
Experimental: Purified PNA 18-mers prepared as described above were reacted with BODIPY-fluorescein succinamidyl ester (BFL-SE, Molecular Probes). For each labelling reaction, 25 μL of a 250-400 μM stock solution of PNA in H2O was mixed with 25 μL 0.2 M sodium bicarbonate (pH 8.0) plus 2.5 μL of a 20 mg/mL solution of BFL-SE in DMSO. After four hours at 25° C., 50 μL DMSO was added, and the labelling reaction was incubated for an additional 4 hours. The labelled product was purified by reverse-phase HPLC as described above. The addition of the BFL fluorophore on the N-terminal primary amine typically delayed the elution time of the PNA by ˜5 min, and the absorption of the eluted peak was monitored both at 260 nm and at 470 nm. Masses of labelled peptides were confirmed by MALDI mass spectrometry, as follows:
Fluorescence polarization-based papain affinity assays were carried out as follows. BFL-labelled PNA was used at concentrations between 5 nM and 10 nM. […] After the binding reactions were equilibrated (4 hours at 25° C.), they were loaded onto a Nunc opaque black 384-well plate, and fluorescence polarization was measured using the Analyst AD system (Molecular Devices) with a fluorescein filter. Fluorescence polarization data in FIGS. 5B and 6C is shown as the change in fluorescence polarization (calculated relative to the output in the absence of protein) as a function of papain concentration. […]

papain [2] = target: T1, papain; assay: Enrichment assay by papain affinity selection of translated template mixtures; assay type: binding
Experimental: The methods used for in vitro papain affinity selection have been reported previously (Giesen (1998) NUCLEIC ACIDS RES. 26, 5004-5006). Papain-conjugated sepharose beads (50 μL) were prepared according to this protocol and combined with […] of translated and displaced PNA library. After 4 hours at 4° C. with slow mixing, the beads were filtered, washed three times with high salt buffer (50 mM Tris pH 7.5, 0.5 M NaCl), once with low salt buffer (50 mM Tris pH 7.5, 0.1 M NaCl), and resuspended in 50 μL papain selection buffer (50 mM Tris pH 7.5, 100 mM NaCl, 1 mM EDTA). One fifth of the beads were removed for PCR as described below.
The remaining beads (40 μL) were heated for 15 min at 95° C., cooled to 60° C., supplemented with an equal volume of fresh papain-linked sepharose beads; cooled rapidly to 4° C., and the selection was repeated. This protocol was repeated three times (four rounds total) for the first-generation selection (FIG. 4A) and was repeated twice (three rounds total) for the second-generation selection (FIG. 6A). After each round of affinity selection, PCR was performed using one fifth of the total beads. Filtered beads were resuspended in 18 μL NEB buffer 4 with BSA, 1 μL Hha I, and 1 μL HinPI I (all restriction endonucleases purchased from New England Biolabs). Reactions were incubated for 1.5 hours at 37° C., then added directly into 80 μL PCR master mix containing 5 μL Taq buffer, 5 μL 25 mM MgCl2, 1 μL 100 μM primer 1, 1 μL 100 μM primer 2, 1 μL 25 mM dNTPs, and 1 μL Taq DNA polymerase and 54 μL H2O. Primer sequences are as follows:
For the enrichment experiments described in FIG. 5A, […] total template:mixture (500:1 M1 template:P1 template; or 500:1 U1 template:P1 template) was translated as described above using library translation conditions. The individual template sequences are as follows:
The translated products were displaced as described above, subjected to three rounds of selection against papain as described above, and the resulting bound DNA templates were digested and amplified by PCR as described above. […]

## CC1=CC(C)=[N+]2C1=Cc1ccc(CCC(=O)NCCN)n1[B-]2(F)F [BFL fluorophore, BFL-ethylenediamine]
Papain [1]
  papain affinity (fluorescence polarization): did not bind papain

B1: U1: unrelated library sequence, translated from template SEQ ID NO: 18 (conjugate)
DNA: TGCGACGGTGCGCACCGTCGCAAGTCAGTCACCCAATCACTCACGCATCCAGTCACCCAACCGGACAAGGTGCGCACCTTGTCC
modifications: DNA, backbone and methylation of C not given here; DNA template covalently linked to PNA translation product, further chemistry not fully specified
Papain [2]; 500:1 ratio of M1:U1 DNA templates, translation, displacement, selection
  enrichment after papain affinity selection: no detectable enrichment

B2: P1 translation product: PNA 40-mer selected for papain binding, covalently linked to its DNA template (SEQ ID NO: 16) (conjugate)
DNA: TGCGACGGTGCGCACCGTCGCAAGCCATTCATGCATGCACCCAGGCATGCATTCATTCATGCGGACAAGGTGCGCACCTTGTCC
modifications: DNA, backbone and methylation of C not given here; DNA template covalently linked to PNA translation product, further chemistry not fully specified
Papain [2]; 500:1 M1:P1 template mixture, translated, displaced, three rounds of selection, PCR and restriction digestion
  enrichment after papain affinity selection: ~500 fold
Papain [2]; 500:1 mixture of U1 (unrelated):P1 templates
  enrichment after papain affinity selection: 500 fold
